Test results published in patent US20250276018A1 (AFFYIMMUNE THERAPEUTICS, published 2025).
Like-named read-outs stand apart in the source and are kept apart here.

Key:
[1] = molecular target: T1, c-MET on human target cells (human, UniProt P08581 25-1390); test: cell-based or functional assay
[2] = molecular target: T2, AF647 labeled c-met protein (UniProt P08581 25-932, limits assumed, labeled with AlexaFluor 647 (AF647)); test: flow cytometry, AF647-labeled c-met protein titrated on CAR-T cells (Round 2)
T2 construct: Soluble labeled c-met protein titrated on CAR-T cells
T2 sequence (P08581 25-932 limits assumed): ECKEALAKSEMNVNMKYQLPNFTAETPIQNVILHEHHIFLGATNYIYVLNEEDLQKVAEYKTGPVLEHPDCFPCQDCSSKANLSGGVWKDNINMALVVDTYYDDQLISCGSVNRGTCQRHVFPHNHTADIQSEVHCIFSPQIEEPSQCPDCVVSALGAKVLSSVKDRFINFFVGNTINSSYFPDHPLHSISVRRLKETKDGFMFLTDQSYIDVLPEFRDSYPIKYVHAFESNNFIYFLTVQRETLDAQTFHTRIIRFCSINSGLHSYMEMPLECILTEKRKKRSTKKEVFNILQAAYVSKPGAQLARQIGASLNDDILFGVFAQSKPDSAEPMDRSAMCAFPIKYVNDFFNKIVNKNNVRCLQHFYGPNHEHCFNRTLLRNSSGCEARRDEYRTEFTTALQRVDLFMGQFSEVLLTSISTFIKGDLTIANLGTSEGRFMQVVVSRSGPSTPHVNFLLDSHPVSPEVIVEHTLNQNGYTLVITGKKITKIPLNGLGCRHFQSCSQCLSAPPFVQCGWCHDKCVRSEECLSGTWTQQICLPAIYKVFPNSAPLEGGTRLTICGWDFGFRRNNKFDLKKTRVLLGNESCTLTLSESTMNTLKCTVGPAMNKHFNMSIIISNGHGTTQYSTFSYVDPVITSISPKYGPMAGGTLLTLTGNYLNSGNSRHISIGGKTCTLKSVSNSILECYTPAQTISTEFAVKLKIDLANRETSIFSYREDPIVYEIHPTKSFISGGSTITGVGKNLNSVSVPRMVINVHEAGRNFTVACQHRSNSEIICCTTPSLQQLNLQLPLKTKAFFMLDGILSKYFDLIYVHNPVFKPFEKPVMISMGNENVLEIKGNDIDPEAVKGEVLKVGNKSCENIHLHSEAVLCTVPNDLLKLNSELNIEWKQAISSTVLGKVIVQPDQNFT
Method: (§1) Binding of labeled c-MET to CAR-T cells expressing the affinity tuned c-MET scFvs was evaluated by transducing lentivirus anti-c-MET CAR particles into human T cells to form c-MET CAR-T cells incubated with AF647-labeled c-MET. […] Following a 48 hr. incubation at 37° C., the culture media was brought up to […] per well and incubated at 37° C. for 10 days.
(§2) Cells were stained on ice for 30 mins and then washed with PBS. After washing, residually bound protein on CAR T cells were measured on a flow cytometer (Beckman, CytoFLEX®). The resulting binding data was fit using a non-linear regression analysis on GraphPad Prism to calculate half effective dose concentration (EC₅₀) values. The results of this analysis are shown in FIGS. 2-5 and Tables 2-5 below.

[3] = molecular target: T1, c-MET on human target cells; test: cell-based or functional assay; remark: listed apart in the source
[4] = molecular target: T1, c-MET on human target cells; test: cell-based or functional assay; remark: listed apart in the source
[5] = molecular target: T2, AF647 labeled c-met protein; test: flow cytometry, EC50 relative to parental Affy6 CAR-T cells (Round 2)
Method: as §1, §2

[6] = molecular target: T1, c-MET on human target cells; test: cell-based or functional assay; remark: listed apart in the source
[7] = molecular target: T1, c-MET on human target cells; test: cell-based or functional assay; remark: listed apart in the source
[8] = molecular target: T1, c-MET on human target cells; test: cell-based or functional assay; remark: listed apart in the source
[9] = molecular target: T1, c-MET on human target cells; test: cell-based or functional assay; remark: listed apart in the source
[10] = molecular target: T1, c-MET on human target cells; test: cell-based or functional assay; remark: listed apart in the source
[11] = molecular target: T1, c-MET on human target cells; test: cell-based or functional assay; remark: listed apart in the source
[12] = molecular target: T1, c-MET on human target cells; test: cell-based or functional assay; remark: listed apart in the source
[13] = molecular target: T1, c-MET on human target cells; test: cell-based or functional assay; remark: listed apart in the source
[14] = molecular target: T2, AF647 labeled c-met protein; test: flow cytometry, EC50 relative to parental Affy7 CAR-T cells (Round 2)
Method: as §1, §2

[15] = molecular target: T1, c-MET on human target cells; test: cell-based or functional assay; remark: listed apart in the source

T1 sequence (P08581 25-1390): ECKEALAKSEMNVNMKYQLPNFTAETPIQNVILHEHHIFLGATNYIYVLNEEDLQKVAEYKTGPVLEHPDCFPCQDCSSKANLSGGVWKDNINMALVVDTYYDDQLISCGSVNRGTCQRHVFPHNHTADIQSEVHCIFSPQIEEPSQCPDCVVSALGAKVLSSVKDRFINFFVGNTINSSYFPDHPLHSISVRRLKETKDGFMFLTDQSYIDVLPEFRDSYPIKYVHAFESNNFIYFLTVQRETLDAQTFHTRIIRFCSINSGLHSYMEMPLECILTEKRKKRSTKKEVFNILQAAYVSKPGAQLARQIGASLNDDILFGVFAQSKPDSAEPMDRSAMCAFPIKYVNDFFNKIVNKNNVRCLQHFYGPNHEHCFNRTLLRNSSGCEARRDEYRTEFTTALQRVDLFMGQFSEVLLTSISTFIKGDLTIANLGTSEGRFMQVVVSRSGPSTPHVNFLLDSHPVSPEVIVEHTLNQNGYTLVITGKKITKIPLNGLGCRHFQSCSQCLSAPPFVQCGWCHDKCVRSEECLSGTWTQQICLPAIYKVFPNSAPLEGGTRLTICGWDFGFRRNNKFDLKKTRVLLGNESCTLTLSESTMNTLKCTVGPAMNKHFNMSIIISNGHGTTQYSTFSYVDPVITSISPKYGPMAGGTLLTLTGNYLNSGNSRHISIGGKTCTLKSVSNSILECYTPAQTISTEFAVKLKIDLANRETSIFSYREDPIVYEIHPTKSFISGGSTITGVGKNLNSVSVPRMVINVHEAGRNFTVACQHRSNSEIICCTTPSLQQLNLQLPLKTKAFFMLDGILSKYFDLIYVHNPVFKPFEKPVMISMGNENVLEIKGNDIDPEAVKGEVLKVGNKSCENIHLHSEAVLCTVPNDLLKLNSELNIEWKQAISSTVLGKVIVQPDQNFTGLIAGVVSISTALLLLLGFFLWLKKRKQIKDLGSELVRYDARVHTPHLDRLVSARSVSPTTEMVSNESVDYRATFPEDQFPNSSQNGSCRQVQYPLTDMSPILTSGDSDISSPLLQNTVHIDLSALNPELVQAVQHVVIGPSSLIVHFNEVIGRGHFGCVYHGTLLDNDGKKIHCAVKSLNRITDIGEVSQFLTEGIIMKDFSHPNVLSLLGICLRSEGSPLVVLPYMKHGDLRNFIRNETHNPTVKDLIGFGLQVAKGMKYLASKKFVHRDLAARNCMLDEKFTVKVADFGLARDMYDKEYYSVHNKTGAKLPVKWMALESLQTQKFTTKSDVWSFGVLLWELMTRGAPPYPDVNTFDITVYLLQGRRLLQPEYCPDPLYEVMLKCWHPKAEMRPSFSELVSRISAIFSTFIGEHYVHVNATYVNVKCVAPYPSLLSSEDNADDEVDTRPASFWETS

B1: Affy6-I3F CAR (other)
chain: GSEQKLISEEDLGSQVQLVQSGAEVKKPGASVKVSCKASGYIFTAYTMHWVRQAPGQGLEWMGWIKPNNGLANYAQKFQGRVTMTRDTSISTAYMELSRLRSDDTAVYYCARSEFTTEFDYWGQGTLVTVSSGGGGSGGGGSGGGGSDIVLTQSPDSLAVSLGERATINCKSSESVDSYANSFMHWYQQKPGQPPKLLIYRASTRESGVPDRFSGSGSRTDFTLTISSLQAEDVAVYYCQQSKEDPLTFGGGTKVEIKASTTTPAPRPPTPAPTIASQPLSLRPEACRPAAGGAVHTRGLDFACDFWVLVVVGGVLACYSLLVTVAFIIFWVRSKRSRLLHSDYMNMTPRRPGPTRKHYQPYAPPRDFAAYRSLRVKFSRSADAPAYQQGQNQLYNELNLGRREEYDVLDKRRGRDPEMGGKPRRKNPQEGLYNELQKDKMAEAYSEIGMKGERRRGKGHDGLYQGLSTATKDTYDALHMQALPPR
notes: CAR on transduced human T cells; I to F in HC CDR3; P2A remnant not included; also called MycT-Affy6-I3F CAR-SSTR2
percent cytotoxicity, H1993, 24 hrs [1]: 64.7%
percent cytotoxicity, H1993, 48 hrs [1]: 91.3%
percent cytotoxicity, H1993, 72 hrs [1]: 97%
EC50 [2]: 20.5 µM
cytotoxicity, Normal Human Colon Cells, 8 hrs [3]: 13.2
cytotoxicity, Normal Human Colon Cells, 16 hrs [3]: 19.2
cytotoxicity, Normal Human Colon Cells, 24 hrs [3]: 22.4
cytotoxicity, Normal Human Colon Cells, 32 hrs [3]: 13.3
cytotoxicity, Normal Human Colon Cells, 40 hrs [3]: 1.6
cytotoxicity, Normal Human Colon Cells, 48 hrs [3]: 8.3
cytotoxicity, Normal Human Kidney Cells, 8 hrs [4]: 19.2
cytotoxicity, Normal Human Kidney Cells, 16 hrs [4]: 28
cytotoxicity, Normal Human Kidney Cells, 24 hrs [4]: 30.4
cytotoxicity, Normal Human Kidney Cells, 32 hrs [4]: 27.8
cytotoxicity, Normal Human Kidney Cells, 40 hrs [4]: 18.8
cytotoxicity, Normal Human Kidney Cells, 48 hrs [4]: 16.5
Fold Change [5]: 937 fold
cytotoxicity, Normal Human Lung Cells, 8 hrs [6]: 17.1
cytotoxicity, Normal Human Lung Cells, 16 hrs [6]: 16.4
cytotoxicity, Normal Human Lung Cells, 24 hrs [6]: 19.1
cytotoxicity, Normal Human Lung Cells, 32 hrs [6]: 18
cytotoxicity, Normal Human Lung Cells, 40 hrs [6]: 29.4
cytotoxicity, Normal Human Lung Cells, 48 hrs [6]: 34.8
cytotoxicity, Normal Human Liver Cells, 8 hrs [7]: 15.3
cytotoxicity, Normal Human Liver Cells, 16 hrs [7]: 24.7
cytotoxicity, Normal Human Liver Cells, 24 hrs [7]: 31.8
cytotoxicity, Normal Human Liver Cells, 32 hrs [7]: 34.8
cytotoxicity, Normal Human Liver Cells, 40 hrs [7]: 34.8
cytotoxicity, Normal Human Liver Cells, 48 hrs [7]: 31.8

B2: Affy7-Y6V CAR (other)
chain: GSEQKLISEEDLGSQVQLQQSGPELVRPGASVKMSCRASGYTFTSYWLHWVKQRPGQGLEWIGMIDPSNSDTRFNPNFKDKATLNVDRSSNTAYMLLSSLTSADSAVYYCATVGSYVSPLDYWGQGTSVTVSSGGGGSGGGGSGGGGSDIMMSQSPSSLTVSVGEKVTVSCKSSQSLLYTSSQKNYLAWYQQKPGQSPKLLIYWASTRESGVPDRFTGSGSGTDFTLTITSVKADDLAVYYCQQYYAYPWTFGGGTKLEIKRASTTTPAPRPPTPAPTIASQPLSLRPEACRPAAGGAVHTRGLDFACDFWVLVVVGGVLACYSLLVTVAFIIFWVRSKRSRLLHSDYMNMTPRRPGPTRKHYQPYAPPRDFAAYRSLRVKFSRSADAPAYQQGQNQLYNELNLGRREEYDVLDKRRGRDPEMGGKPRRKNPQEGLYNELQKDKMAEAYSEIGMKGERRRGKGHDGLYQGLSTATKDTYDALHMQALPPR
notes: CAR on transduced human T cells; Y to V in HC CDR3; P2A remnant not included; also called MycT-Affy7-Y6V CAR-SSTR2
percent cytotoxicity, H1993, 24 hrs [8]: 40%
percent cytotoxicity, H1993, 48 hrs [8]: 84.2%
percent cytotoxicity, H1993, 72 hrs [8]: 93.8%
cytotoxicity, Normal Human Lung Cells, 8 hrs [9]: 18.2
cytotoxicity, Normal Human Lung Cells, 16 hrs [9]: 18
cytotoxicity, Normal Human Lung Cells, 24 hrs [9]: 15.4
cytotoxicity, Normal Human Lung Cells, 32 hrs [9]: 17.9
cytotoxicity, Normal Human Lung Cells, 40 hrs [9]: 16.7
cytotoxicity, Normal Human Lung Cells, 48 hrs [9]: 21.5
EC50 [2]: 5.3 µM
cytotoxicity, Normal Human Liver Cells, 8 hrs [10]: 6.5
cytotoxicity, Normal Human Liver Cells, 16 hrs [10]: 3.9
cytotoxicity, Normal Human Liver Cells, 24 hrs [10]: 5.5
cytotoxicity, Normal Human Liver Cells, 32 hrs [10]: 8.7
cytotoxicity, Normal Human Liver Cells, 40 hrs [10]: 10.7
cytotoxicity, Normal Human Liver Cells, 48 hrs [10]: 10.8
percent cytotoxicity, Hs746T, 24 hrs [11]: 65%
percent cytotoxicity, Hs746T, 48 hrs [11]: 94.8%
percent cytotoxicity, Hs746T, 72 hrs [11]: 98.2%
cytotoxicity, Normal Human Colon Cells, 8 hrs [12]: 9.4
cytotoxicity, Normal Human Colon Cells, 16 hrs [12]: 13.5
cytotoxicity, Normal Human Colon Cells, 24 hrs [12]: 14
cytotoxicity, Normal Human Colon Cells, 32 hrs [12]: 18.2
cytotoxicity, Normal Human Colon Cells, 40 hrs [12]: 20.3
cytotoxicity, Normal Human Colon Cells, 48 hrs [12]: 22.2
percent cytotoxicity, SNU638, 24 hrs [13]: 68.1%
percent cytotoxicity, SNU638, 48 hrs [13]: 81.9%
percent cytotoxicity, SNU638, 72 hrs [13]: 93.2%
Fold Change [14]: 53 fold
cytotoxicity, Normal Human Kidney Cells, 8 hrs [15]: 9.3
cytotoxicity, Normal Human Kidney Cells, 16 hrs [15]: 9.7
cytotoxicity, Normal Human Kidney Cells, 24 hrs [15]: 10.6
cytotoxicity, Normal Human Kidney Cells, 32 hrs [15]: 10.3
cytotoxicity, Normal Human Kidney Cells, 40 hrs [15]: 11
cytotoxicity, Normal Human Kidney Cells, 48 hrs [15]: 14.8
